Target: CD3 on human T cells (H9 cells, ATCC HTB-176) (human)
Assay: flow cytometry on H9 cells, PE anti-human IgG alone (no primary antibody), negative control

CD3 on human T cells (H9 cells, ATCC HTB-176) (human), sequence (P07766 23-207, chain 1 of 3): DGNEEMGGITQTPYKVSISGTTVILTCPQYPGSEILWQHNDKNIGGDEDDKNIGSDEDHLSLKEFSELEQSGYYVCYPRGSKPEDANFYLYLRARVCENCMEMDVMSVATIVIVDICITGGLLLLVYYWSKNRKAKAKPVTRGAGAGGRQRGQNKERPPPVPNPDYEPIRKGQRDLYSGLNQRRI
CD3 on human T cells (H9 cells, ATCC HTB-176) (human), sequence (P04234 22-171, chain 2 of 3, further chain): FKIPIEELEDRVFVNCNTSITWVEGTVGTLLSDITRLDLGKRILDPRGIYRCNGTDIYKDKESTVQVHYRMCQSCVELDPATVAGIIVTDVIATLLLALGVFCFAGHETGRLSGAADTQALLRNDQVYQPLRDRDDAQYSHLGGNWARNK
CD3 on human T cells (H9 cells, ATCC HTB-176) (human), sequence (P09693 23-182, chain 3 of 3, further chain): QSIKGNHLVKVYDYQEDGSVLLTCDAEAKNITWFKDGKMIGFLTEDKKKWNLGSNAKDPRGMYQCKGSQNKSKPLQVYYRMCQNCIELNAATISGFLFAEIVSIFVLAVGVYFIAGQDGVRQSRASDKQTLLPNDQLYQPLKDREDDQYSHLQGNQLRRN

- Mean : PE-A: 138
Substance: a-HuIgG PE (antibody)

Reference: patent publication US20200317779A1
